Reference: patent US20210008201A1, “ANTIBODIES FOR EPIDERMAL GROWTH FACTOR RECEPTOR 3 (HER3)” (NOVARTIS AG, priority 2011, published 2021)
Substitutions are numbered along the chain they refer to.

B1: MOR09824: anti-HER3 human antibody, IgG1/kappa; VH SEQ ID NO: 33, VL SEQ ID NO: 32 (antibody, V domains shown)
VH: QVQLVESGGGLVQPGGSLRLSCAASGFTFSSYAMSWVRQAPGKGLEWVSVISAWGHVKYYADSVKGRFTISRDNSKNTLYLQMNSLRAEDTAVYYCARWGDEGFDIWGQGTLVTVSS
VL: DIQMTQSPSSLSASVGDRVTITCRASQGISNWLAWYQQKPGKAPKLLIYGASSLQSGVPSRFSGSGSGTDFTLTISSLQPEDFAVYYCQQYSSFPTTFGQGTKVEIK
B2: MOR09974: anti-HER3 human antibody, IgG1/kappa; VH SEQ ID NO: 69, VL SEQ ID NO: 68 (antibody, V domains shown)
VH: B1 VH with S52N, A53P, W54S, H56N, V57F, K58T, Y59N
VL: B1 VL
B3: MOR10701: anti-HER3 human antibody, IgG1/kappa; VH SEQ ID NO: 105, VL SEQ ID NO: 104 (antibody, V domains shown)
VH: B1 VH with Q1E, V5L, I51T, S52G, W54V, H56R, V57S, K58T, A61P
VL: B1 VL with V85T
B4: MOR10702: anti-HER3 human antibody, IgG1/kappa; VH SEQ ID NO: 123, VL SEQ ID NO: 122 (antibody, V domains shown)
VH: B1 VH with Q1E, V5L
VL: B1 VL with V85T
B5: MOR12609: anti-HER3 human antibody, IgG1/kappa; VH SEQ ID NO: 357, VL SEQ ID NO: 356 (antibody, V domains shown)
VH: B1 VH with S52N, A53G, W54L, H56Y, V57T, K58T, Y59F
VL: B1 VL
B6: MOR12610: anti-HER3 human antibody, IgG1/kappa; VH SEQ ID NO: 375, VL SEQ ID NO: 374 (antibody, V domains shown)
VH: QVQLVESGGGLVQPGGSLRLSCAASGFTFSSYAMSWVRQAPGKGLEWVSGTGPYGGTYYPDSVKGRFTISRDNSKNTLYLQMNSLRAEDTAVYYCARWGDEGFDIWGQGTLVTVSS
VL: B1 VL

Columns and labels:
[1] = system: HER3 phosphorylation in MCF7 cells; assay: Phospho-HER3 in vitro cell assay, neuregulin stimulated MCF7 cells; assay type: cell-based, human; settings: both ligand-dependent and ligand-independent manner; summary of cell signaling assays
Protocol: MCF-7 cells were routinely maintained in DMEM/F12, 15 mM HEPES, L-glutamine, 10% FCS and SK-Br-3 in McCoy's 5a, 10% FCS, 1.5 mM L-glutamine. Sub-confluent MCF7 or SK-Br-3 cells grown in complete media were harvested with accutase (PAA Laboratories) and resuspended in the appropriate growth media at a final concentration of […]. 100 μL of cell suspension was then added to each well of a 96-well flat bottomed plate (Nunc) to give a final density of 5×10^4 cells/well. MCF7 cells were allowed to attach for approximately 3 hours before the media was exchanged for starvation media containing 0.5% FBS. All plates were then incubated overnight at 37° C. prior to treatment with the appropriate concentration of HER3 antibodies (diluted in the appropriate media) for 80 minutes at 37° C. MCF7 cells were treated with 50 ng/mL neuregulin 1-β1 EGF domain (R&D Systems) for the final 20 minutes to stimulate HER3 phosphorylation. All media was gently aspirated and the cells washed with ice-cold PBS containing 1 mM CaCl2) and 0.5 mM MgCl2 (Gibco). The cells were lysed by adding 50 μL ice-cold lysis buffer (20 mM Tris (pH8.0)/137 mM NaCl/10% Glycerol/2 mM EDTA/1% NP-40/1 mM sodium orthovanadate/, Aprotinin (10 μg/mL)/Leupeptin (10 μg/mL)) and incubated on ice with shaking for 30 minutes. Lysates were then collected and spun at 1800 g for 15 minutes at 4° C. to remove cell debris. 20 μL of lysate was added to a pre-prepared capture plate.
HER3 was captured from the lysate by incubating the plate at room temperature for one hour with shaking before the lysate was aspirated and the wells washed with 1× Tris buffer (Mesoscale Discovery)/0.1% Tween-20. Phosphorylated HER3 was detected using 0.75 μg/mL biotinylated anti-phosphotyrosine antibody (R&D Systems) prepared in 1% BSA/1× Tris/0.1% Tween-20 by incubating with shaking at room temperature for 1 hour. The wells were washed four times with 1× Tris/0.1% Tween-20 and biotinylated proteins were detected by incubating with S-Tag labelled Streptavidin (Mesoscale Discovery) diluted in 1% BSA/1× Tris/0.1% Tween-20 for one hour at room temperature. Each well was aspirated and washed four times with 1× Tris/0.1% Tween-20 before adding 20 μL of Read buffer T with surfactant (Mesoscale Discovery) and the signal quantified using a Mesoscale Sector Imager. Antibodies MOR06391 or MOR03207 were included in signalling experiments as isotype controls.

[2] = system: BT-474 xenografts; assay: In vivo BT-474 efficacy studies; parameters: species or system female athymic nu/nu Balb/C mice; settings: antibody 20 mg/kg in combination with sub-optimal trastuzumab 1 mg/kg
Protocol: BT-474 cells were cultured in DMEM containing 10% heat-inactivated fetal bovine serum without antibiotics until the time of implantation.
One day before cell inoculation, female athymic nu/nu Balb/C mice (Harlan Laboratories) were implanted subcutaneously with a sustained release 17β-estradiol pellet (Innovative Research of America) to maintain serum estrogen levels. One day after 17β-estradiol pellet implantation, 5×10^6 cells were injected orthotopically into the 4th mammary fatpad in a suspension containing 50% phenol red-free matrigel (BD Biosciences) in Hank's balanced salt solution. The total injection volume containing cells in suspension was 200 μL. 20 days following cell implantation animals with a tumor volume of approximately 200 mm^3 were enrolled in the efficacy study. In general, a total of 10 animals per group were enrolled in efficacy studies.
An initial loading dose of 40 mg/kg was given for the first dose. […] For the duration of the studies, tumor volume was measured by calipering twice per week. Percent treatment/control (T/C) values were calculated using the following formula: […]
Body weight was measured twice per week and dose was body weight adjusted. The % change in body weight was calculated as (BWcurrent−BWinitial)/(BWinitial)×100. […]
All data were expressed as mean standard error of the mean (SEM). […]

[3] = system: BxPC3 tumors; assay: In vivo BxPC3 efficacy studies; parameters: species or system female athymic nu/nu Balb/C mice; settings: BxPC3 tumor growth model
Protocol: BxPC3 cells were cultured in RPMI-1640 medium containing 10% heat-inactivated fetal bovine serum without antibiotics until the time of implantation.
Female athymic nu/nu Balb/C mice (Harlan Laboratories) were implanted subcutaneously with 10×10^6 cells in a mixture of 50% phosphate buffered saline with 50% matrigel. The total injection volume containing cells in suspension was 200 μL. Once tumors had reached approximately 200 mm^3 in size, animals were enrolled in the efficacy study. In general, a total of 10 animals per group were enrolled in studies.
Animals were dosed intravenously via lateral tail vein injection. An initial loading dose of 40 mg/kg was given for the first dose. After the initial dose, animals were on a 20 mg/kg, every other day schedule for the duration of the study (25 days under treatment). Tumor volume and T/C values were calculated as previously detailed.

Row | Molecule | inhibition of cellular HER3 activity [1] | % T/C [2] | inhibition of ligand driven tumor growth [3]
1 | B1 | capable of inhibiting cellular HER3 activity |  | 
2 | B2 | capable of inhibiting cellular HER3 activity |  | 
3 | B3 | capable of inhibiting cellular HER3 activity | −50% | very effectively inhibited ligand driven tumor growth
4 | B4 | capable of inhibiting cellular HER3 activity |  | 
5 | B5 | capable of inhibiting cellular HER3 activity |  | 
6 | B6 | capable of inhibiting cellular HER3 activity |  | 
